What was measured:
[1] = molecular target: T1, HPV16 major capsid protein L1 (human papillomavirus type 16, UniProt P03101 1-505, disulfide-linked to other L1 chains in the virions); test: co-sedimentation; CsCl-purified virions; SDS-PAGE and Coomassie staining-based densitometry; data not shown; details: partners not purified
T1 construct: major capsid protein L1 of human papillomavirus type 16, expressed from the capsid expression plasmid pXULL; Assembled with L2 and the HPV16 genome into virions; source: 293TT, transfected with pXULL (L1 and L2 expression plasmid), in virions purified by CsCl density gradient
T1 sequence: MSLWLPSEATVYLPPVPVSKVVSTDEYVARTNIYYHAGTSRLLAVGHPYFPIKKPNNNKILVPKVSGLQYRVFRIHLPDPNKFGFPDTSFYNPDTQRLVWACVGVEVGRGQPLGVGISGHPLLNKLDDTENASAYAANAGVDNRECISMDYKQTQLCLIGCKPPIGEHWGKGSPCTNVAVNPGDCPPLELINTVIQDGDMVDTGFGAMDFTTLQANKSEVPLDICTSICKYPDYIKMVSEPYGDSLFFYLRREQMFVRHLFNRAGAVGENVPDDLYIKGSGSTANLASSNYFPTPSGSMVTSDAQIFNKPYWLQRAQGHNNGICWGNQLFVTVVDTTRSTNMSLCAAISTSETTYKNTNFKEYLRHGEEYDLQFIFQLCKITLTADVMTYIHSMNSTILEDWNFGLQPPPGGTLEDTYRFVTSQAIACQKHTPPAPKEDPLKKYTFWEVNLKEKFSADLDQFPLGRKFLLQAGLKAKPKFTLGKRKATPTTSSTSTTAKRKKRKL

[2] = molecular target: the molecule itself; test: non-reducing denaturing SDS-PAGE with immunoblot; purified virions reacted with 2 mM NEM for 1.5 h at room temperature, mixed with non-reducing SDS loading buffer (2% SDS), 7.5% gel, immunoblot for L1 and L2; shows only disulfide-linked species

B1: HPV16 minor capsid protein L2, wild type (natural protein)
chain: MRHKRSAKRTKRASATQLYKTCKQAGTCPPDIIPKVEGKTIAEQILQYGSMGVFFGGLGIGTGSGTGGRTGYIPLGTRPPTATDTLAPVRPPLTVDPVGPSDPSIVSLVEETSFIDAGAPTSVPSIPPDVSGFSITTSTDTTPAILDINNTVTTVTTHNNPTFTDPSVLQPPTPAETGGHFTLSSSTISTHNYEEIPMDTFIVSTNPNTVTSSTPIPGSRPVARLGLYSRTTQQVKVVDPAFVTTPTKLITYDNPAYEGIDVDNTLYFSSNDNSINIAPDPDFLDIVALHRPALTSRRTGIRYSRIGNKQTLRTRSGKSIGAKVHYYYDLSTIDPAEEIELQTITPSTYTTTSHAASPTSINNGLYDIYADDFITDTSTTPVPSVPSTSLSGYIPANTTIPFGGAYNIPLVSGPDIPINITDQAPSLIPIVPGSPQYTIIADAGDFYLHPSYYMLRKRRKRLPYFFSDVSLAA
modifications: intramolecular disulfide bond C22-C28
notes: minor capsid protein L2 of human papillomavirus type 16, expressed from pXULL; AAD33258 is the entry used for the alignment and gi 4927726 the one searched in mass spectrometry; Assembled with L1 into virions; also called wild type L2; source: 293TT, transfected with pXULL (L1 and L2 expression plasmid), in virions purified by CsCl density gradient
molecules L2 per virion [1]: ~22 molecules L2 per virion

B2: HPV16 L2 C28S (natural protein)
chain: MRHKRSAKRTKRASATQLYKTCKQAGTSPPDIIPKVEGKTIAEQILQYGSMGVFFGGLGIGTGSGTGGRTGYIPLGTRPPTATDTLAPVRPPLTVDPVGPSDPSIVSLVEETSFIDAGAPTSVPSIPPDVSGFSITTSTDTTPAILDINNTVTTVTTHNNPTFTDPSVLQPPTPAETGGHFTLSSSTISTHNYEEIPMDTFIVSTNPNTVTSSTPIPGSRPVARLGLYSRTTQQVKVVDPAFVTTPTKLITYDNPAYEGIDVDNTLYFSSNDNSINIAPDPDFLDIVALHRPALTSRRTGIRYSRIGNKQTLRTRSGKSIGAKVHYYYDLSTIDPAEEIELQTITPSTYTTTSHAASPTSINNGLYDIYADDFITDTSTTPVPSVPSTSLSGYIPANTTIPFGGAYNIPLVSGPDIPINITDQAPSLIPIVPGSPQYTIIADAGDFYLHPSYYMLRKRRKRLPYFFSDVSLAA
notes: minor capsid protein L2 of human papillomavirus type 16 with C28S, expressed from a pXULL variant made by site directed mutagenesis; Assembled with L1 into virions; also called single C28S mutant; source: 293TT, transfected with mutant pXULL, in virions purified by CsCl density gradient
stoichiometry N [2]: 2
molecules L2 per virion [1]: ~22 molecules L2 per virion

B3: HPV16 L2 C22/28S (natural protein)
chain: MRHKRSAKRTKRASATQLYKTSKQAGTSPPDIIPKVEGKTIAEQILQYGSMGVFFGGLGIGTGSGTGGRTGYIPLGTRPPTATDTLAPVRPPLTVDPVGPSDPSIVSLVEETSFIDAGAPTSVPSIPPDVSGFSITTSTDTTPAILDINNTVTTVTTHNNPTFTDPSVLQPPTPAETGGHFTLSSSTISTHNYEEIPMDTFIVSTNPNTVTSSTPIPGSRPVARLGLYSRTTQQVKVVDPAFVTTPTKLITYDNPAYEGIDVDNTLYFSSNDNSINIAPDPDFLDIVALHRPALTSRRTGIRYSRIGNKQTLRTRSGKSIGAKVHYYYDLSTIDPAEEIELQTITPSTYTTTSHAASPTSINNGLYDIYADDFITDTSTTPVPSVPSTSLSGYIPANTTIPFGGAYNIPLVSGPDIPINITDQAPSLIPIVPGSPQYTIIADAGDFYLHPSYYMLRKRRKRLPYFFSDVSLAA
notes: minor capsid protein L2 of human papillomavirus type 16 with C22S and C28S, expressed from a pXULL variant made by site directed mutagenesis; Assembled with L1 into virions; also called double mutant; source: 293TT, transfected with mutant pXULL, in virions purified by CsCl density gradient
molecules L2 per virion [1]: ~22 molecules L2 per virion

B4: HPV16 L2 C22S (natural protein)
chain: MRHKRSAKRTKRASATQLYKTSKQAGTCPPDIIPKVEGKTIAEQILQYGSMGVFFGGLGIGTGSGTGGRTGYIPLGTRPPTATDTLAPVRPPLTVDPVGPSDPSIVSLVEETSFIDAGAPTSVPSIPPDVSGFSITTSTDTTPAILDINNTVTTVTTHNNPTFTDPSVLQPPTPAETGGHFTLSSSTISTHNYEEIPMDTFIVSTNPNTVTSSTPIPGSRPVARLGLYSRTTQQVKVVDPAFVTTPTKLITYDNPAYEGIDVDNTLYFSSNDNSINIAPDPDFLDIVALHRPALTSRRTGIRYSRIGNKQTLRTRSGKSIGAKVHYYYDLSTIDPAEEIELQTITPSTYTTTSHAASPTSINNGLYDIYADDFITDTSTTPVPSVPSTSLSGYIPANTTIPFGGAYNIPLVSGPDIPINITDQAPSLIPIVPGSPQYTIIADAGDFYLHPSYYMLRKRRKRLPYFFSDVSLAA
notes: minor capsid protein L2 of human papillomavirus type 16 with C22S, expressed from a pXULL variant made by site directed mutagenesis; Assembled with L1 into virions; also called single C22S mutant; source: 293TT, transfected with mutant pXULL, in virions purified by CsCl density gradient
stoichiometry N [2]: 2
molecules L2 per virion [1]: ~22 molecules L2 per virion
